For this test, the target named is B’β-GFP (Arabidopsis thaliana) (UniProt O04376). Nature of the test: co-IP.
UniProt O04376, sequence (O04376 whole entry): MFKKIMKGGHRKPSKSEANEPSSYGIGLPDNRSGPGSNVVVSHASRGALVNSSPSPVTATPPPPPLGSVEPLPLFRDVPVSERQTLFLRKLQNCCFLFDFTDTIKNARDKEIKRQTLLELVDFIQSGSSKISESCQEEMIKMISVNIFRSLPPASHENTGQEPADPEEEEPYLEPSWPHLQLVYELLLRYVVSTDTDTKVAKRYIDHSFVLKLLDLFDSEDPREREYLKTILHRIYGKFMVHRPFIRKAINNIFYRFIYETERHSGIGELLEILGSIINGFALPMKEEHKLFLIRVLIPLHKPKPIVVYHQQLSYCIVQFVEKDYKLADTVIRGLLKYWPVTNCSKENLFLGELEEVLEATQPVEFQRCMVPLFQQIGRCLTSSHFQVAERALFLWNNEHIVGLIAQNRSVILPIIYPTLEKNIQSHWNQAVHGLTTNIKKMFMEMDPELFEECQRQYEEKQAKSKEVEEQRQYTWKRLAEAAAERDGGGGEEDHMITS

Turning to “PP2A C subunit (from UniProt Q07099 1-306) (enzyme)”, the binding ability to the C subunit relative to YFP-B’β (fold of YFP-B’β) was 0.33.

These data come from article doi:10.1101/2023.08.17.553727.
